Reference: patent US20240158494A1 (Biogen, published 2024)
Read-outs that look alike come from different tables or passages of the source.

What was measured:
[1] = molecular target: T1, human transferrin receptor 1 (TfR1), full length, expressed on cells (human, UniProt P02786 1-760); assay: FACS on Ba/F3 cells, Fab supernatant
T1 construct: also called human TfR1; huTfR

[2] = molecular target: T2, cynomolgus monkey transferrin receptor 1 (TfR1), full length, expressed on cells (cynomolgus monkey, UniProt Q5RDH6 1-760 (Pongo abelii entry)); assay: FACS on Ba/F3 cells, Fab supernatant
T2 construct: also called cyno TfR1; cyTfR

[3] = molecular target: T1, human transferrin receptor 1 (TfR1), …; assay: FACS on Ba/F3 cells, Fab supernatant; remark: listed apart in the source
[4] = molecular target: T2, cynomolgus monkey transferrin receptor …; assay: FACS on Ba/F3 cells, Fab supernatant; remark: listed apart in the source
[5] = molecular target: T3, recombinant human TfR1 extracellular domain, His-tagged (human, UniProt P02786 89-760); assay: SPR, TfR1 ECD-His captured, Fab injected, 1:1 fit
T3 construct: also called Human TfR1 ECD; human TfR1 ECD-His

[6] = molecular target: T4, recombinant cynomolgus monkey TfR1 extracellular domain, His-tagged (cynomolgus monkey, UniProt Q5RDH6 87-760 (Pongo abelii entry)); assay: SPR, TfR1 ECD-His captured, Fab injected, 1:1 fit
T4 construct: also called Cyno TfR1 ECD; cyno TfR1 ECD-His

Binder	EC50 [3] [nM]	EC50 [4] [nM]	other results
TfRANTIBODY-B HC-H4C/LC-L2 (C90V) hIgG1Fab′(1C) (Fab, V domains shown, also called ANTIBODY-B H4C/L2(C90V); H4C (C90V)/L2) VH: QSLVESGGGVVQPGRSLRLSCKASGFSFSNSYWICWVRQAPGKGLEWVGCINTDADSTNYASWARGRFTISKTSSTTVYLQMNSLRAEDTAVYYCARQNNVFDPGYNLWGPGTLVTVSS VL: ELVLTQSPSTLSASVGDRVTITCRASQNIGSNLAWYQQKPGKAPKLLIYDASKLESGVPSRFSGSGSGTEFTLTISSLQPDDFATYYCQVTVRGGAYGNAFGGGTKVEIKR	–	–	EC50 [1]: 4.9 nM; EC50 [2]: 2.2 nM
TfRANTIBODY-B HC-H3C/LC-L2 (C90S) hIgG1Fab′(1C) (Fab, V domains shown, also called ANTIBODY-B H3C/L2(C90S)) VH: QSLVESGGGVVQPGRSLRLSCAASGFSFSNSYWICWVRQAPGKGLEWVGCINTDADSTNYASWARGRFTISKDNSKNTLYLQMNSLRAEDTAVYYCARQNNVFDPGYNLWGQGTLVTVSS VL: ELVLTQSPSTLSASVGDRVTITCRASQNIGSNLAWYQQKPGKAPKLLIYDASKLESGVPSRFSGSGSGTEFTLTISSLQPDDFATYYCQSTVRGGAYGNAFGGGTKVEIKR	–	–	EC50 [1]: 16.8 nM; EC50 [2]: 6.2 nM
TfRANTIBODY-B HC-H1C/LC-L2 (C90V) hIgG1Fab′(1C) (Fab, V domains shown, also called ANTIBODY-B H1C/L2(C90V)) VH: QSLVESGGGVVQPGRSLRLSCAASGFSFSNSYWICWVRQAPGKGLEWVGCINTDADSTNYADSVKGRFTISKDNSKNTVYLQMNSLRAEDTAVYYCARQNNVFDPGYNLWGQGTLVTVSS VL: ELVLTQSPSTLSASVGDRVTITCRASQNIGSNLAWYQQKPGKAPKLLIYDASKLESGVPSRFSGSGSGTEFTLTISSLQPDDFATYYCQVTVRGGAYGNAFGGGTKVEIKR	–	–	EC50 [1]: 10.7 nM; EC50 [2]: 2.9 nM
TfR1 ANTIBODY-A HC-H0 hIgG1 Fab′(1C)/LC-L0 hKappa (Fab, V domains shown, also called ANTIBODY-A H0/L0) VH: EVQLVESGGGLVQPGGSLRLSCAASGIDFSSSGYMAWVRQAPGKGLEWVGAIYTYSSNTYYAASVKGRFTISRDDSKNSLYLQMNSLKTEDTAVYYCARGTYGYTGYTYTMGYFSLWGQGTLVTVSS VL: DIQMTQSPSTLSASVGDRVTITCQASQNINSYLAWYQQKPGKAPKLLIYRASSLESGVPSRFSGSGSGTEFTLTISSLQPDDFATYYCQSYYYSGSSNYNAFGGGTKVEIKR	18	> 85	–
TfR1 ANTIBODY-A HC-H1 hIgG1 Fab′(1C)/LC-L1 hKappa (Fab, V domains shown, also called ANTIBODY-A H1/L1) VH: QSLVESGGGLVQPGGSLRLSCAASGIDFSSSGYMAWVRQAPGKGLEWVGAIYTYSSNTYYAASVKGRFTISRDDSKNSLYLQMNSLKTEDTAVYYCARGTYGYTGYTYTMGYFSLWGQGTLVTVSS VL: DIQMTQSPSTLSASVGDRVTITCQASQNINSYLAWYQQKPGKAPKLLIYRASTLASGVPSRFSGSGSGTEFTLTISSLQPDDFATYYCQSYYYSGSSNYNAFGGGTKVEIKR	~30	> 162	–
TfR1 ANTIBODY-A HC-H0 hIgG1 Fab′(1C)/LC-L1 hKappa (Fab, V domains shown, also called ANTIBODY-A H0/L1) VH: EVQLVESGGGLVQPGGSLRLSCAASGIDFSSSGYMAWVRQAPGKGLEWVGAIYTYSSNTYYAASVKGRFTISRDDSKNSLYLQMNSLKTEDTAVYYCARGTYGYTGYTYTMGYFSLWGQGTLVTVSS VL: DIQMTQSPSTLSASVGDRVTITCQASQNINSYLAWYQQKPGKAPKLLIYRASTLASGVPSRFSGSGSGTEFTLTISSLQPDDFATYYCQSYYYSGSSNYNAFGGGTKVEIKR	~19	> 107	–
TfR1 ANTIBODY-A HC-H1C hIgG1 Fab′(1C)/LC-L1 hKappa (Fab, V domains shown, also called ANTIBODY-A H1C/L1) VH: QSLVESGGGLVQPGGSLRLSCAASGIDFSSSGYMCWVRQAPGKGLEWVGCIYTYSSNTYYAASVKGRFTISRDDSKNSLYLQMNSLKTEDTAVYYCARGTYGYTGYTYTMGYFSLWGQGTLVTVSS VL: DIQMTQSPSTLSASVGDRVTITCQASQNINSYLAWYQQKPGKAPKLLIYRASTLASGVPSRFSGSGSGTEFTLTISSLQPDDFATYYCQSYYYSGSSNYNAFGGGTKVEIKR	3.6	~26	–
TfR1 ANTIBODY-A HC-H3C hIgG1 Fab′(1C)/LC-L2 hKappa (Fab, V domains shown, also called ANTIBODY-A H3C/L2) VH: QSLVESGGGLVQPGGSLRLSCKASGIDFSSSGYMCWVRQAPGKGLEWVGCIYTYSSNTYYASWAKGRFTISKDSKNSVYLQMNSLKTEDTAVYYCARGTYGYTGYTYTMGYFSLWGPGTLVTVSS VL: ELDMTQSPSTLSASVGDRVTITCQASQNINSYLAWYQQKPGKAPKLLIYRASTLASGVPSRFSGSGSGTEFTLTISSLQPDDFATYYCQSYYYSGSSNYNAFGGGTKVEIKR	1.6	10.4	Kd [5]: 2.4 nM; koff [5]: 0.00215 s⁻¹; kon [5]: 886000 M⁻¹ s⁻¹; Kd [6]: 8.3 nM; koff [6]: 0.0178 s⁻¹; kon [6]: 2.16e+06 M⁻¹ s⁻¹
TfR1 ANTIBODY-A HC-H1 hIgG1 Fab′(1C)/LC-L2 hKappa (Fab, V domains shown, also called ANTIBODY-A H1/L2) VH: QSLVESGGGLVQPGGSLRLSCAASGIDFSSSGYMAWVRQAPGKGLEWVGAIYTYSSNTYYAASVKGRFTISRDDSKNSLYLQMNSLKTEDTAVYYCARGTYGYTGYTYTMGYFSLWGQGTLVTVSS VL: ELDMTQSPSTLSASVGDRVTITCQASQNINSYLAWYQQKPGKAPKLLIYRASTLASGVPSRFSGSGSGTEFTLTISSLQPDDFATYYCQSYYYSGSSNYNAFGGGTKVEIKR	> 74	–	–
TfR1 ANTIBODY-A HC-H1C hIgG1 Fab′(1C)/LC-L2 hKappa (Fab, V domains shown, also called ANTIBODY-A H1C/L2) VH: QSLVESGGGLVQPGGSLRLSCAASGIDFSSSGYMCWVRQAPGKGLEWVGCIYTYSSNTYYAASVKGRFTISRDDSKNSLYLQMNSLKTEDTAVYYCARGTYGYTGYTYTMGYFSLWGQGTLVTVSS VL: ELDMTQSPSTLSASVGDRVTITCQASQNINSYLAWYQQKPGKAPKLLIYRASTLASGVPSRFSGSGSGTEFTLTISSLQPDDFATYYCQSYYYSGSSNYNAFGGGTKVEIKR	3.6	~39	–
TfR1 ANTIBODY-A HC-H2C hIgG1 Fab′(1C)/LC-L2 hKappa (Fab, V domains shown, also called ANTIBODY-A H2C/L2) VH: QSLVESGGGLVQPGGSLRLSCAASGIDFSSSGYMCWVRQAPGKGLEWVGCIYTYSSNTYYAASVKGRFTISKTSSTTVYLQMNSLKTEDTAVYYCARGTYGYTGYTYTMGYFSLWGQGTLVTVSS VL: ELDMTQSPSTLSASVGDRVTITCQASQNINSYLAWYQQKPGKAPKLLIYRASTLASGVPSRFSGSGSGTEFTLTISSLQPDDFATYYCQSYYYSGSSNYNAFGGGTKVEIKR	2.8	7.4	Kd [5]: 2.2 nM; koff [5]: 0.00213 s⁻¹; kon [5]: 952000 M⁻¹ s⁻¹; Kd [6]: 7.8 nM; koff [6]: 0.0137 s⁻¹; kon [6]: 1.76e+06 M⁻¹ s⁻¹
TfR1 ANTIBODY-A HC-H0C hIgG1 Fab′(1C)/LC-L2 hKappa (Fab, V domains shown, also called ANTIBODY-A H0C/L2) VH: EVQLVESGGGLVQPGGSLRLSCAASGIDFSSSGYMCWVRQAPGKGLEWVGCIYTYSSNTYYAASVKGRFTISRDDSKNSLYLQMNSLKTEDTAVYYCARGTYGYTGYTYTMGYFSLWGQGTLVTVSS VL: ELDMTQSPSTLSASVGDRVTITCQASQNINSYLAWYQQKPGKAPKLLIYRASTLASGVPSRFSGSGSGTEFTLTISSLQPDDFATYYCQSYYYSGSSNYNAFGGGTKVEIKR	3.6	–	–
TfR1 ANTIBODY-A HC-H1 hIgG1 Fab′(1C)/LC-L0 hKappa (Fab, V domains shown, also called ANTIBODY-A H1/L0) VH: QSLVESGGGLVQPGGSLRLSCAASGIDFSSSGYMAWVRQAPGKGLEWVGAIYTYSSNTYYAASVKGRFTISRDDSKNSLYLQMNSLKTEDTAVYYCARGTYGYTGYTYTMGYFSLWGQGTLVTVSS VL: DIQMTQSPSTLSASVGDRVTITCQASQNINSYLAWYQQKPGKAPKLLIYRASSLESGVPSRFSGSGSGTEFTLTISSLQPDDFATYYCQSYYYSGSSNYNAFGGGTKVEIKR	25	> 176	–
TfR1 ANTIBODY-A HC-H2 hIgG1 Fab′(1C)/LC-L1 hKappa (Fab, V domains shown, heavy chain derived; also called ANTIBODY-A H2/L1) VH: QSLVESGGGLVQPGGSLRLSCAASGIDFSSSGYMAWVRQAPGKGLEWVGAIYTYSSNTYYAASVKGRFTISKTSSTTVYLQMNSLKTEDTAVYYCARGTYGYTGYTYTMGYFSLWGQGTLVTVSS VL: DIQMTQSPSTLSASVGDRVTITCQASQNINSYLAWYQQKPGKAPKLLIYRASTLASGVPSRFSGSGSGTEFTLTISSLQPDDFATYYCQSYYYSGSSNYNAFGGGTKVEIKR	4.4	> 36	–
TfR1 ANTIBODY-A HC-H1C hIgG1 Fab′(1C)/LC-L0 hKappa (Fab, V domains shown, also called ANTIBODY-A H1C/L0) VH: QSLVESGGGLVQPGGSLRLSCAASGIDFSSSGYMCWVRQAPGKGLEWVGCIYTYSSNTYYAASVKGRFTISRDDSKNSLYLQMNSLKTEDTAVYYCARGTYGYTGYTYTMGYFSLWGQGTLVTVSS VL: DIQMTQSPSTLSASVGDRVTITCQASQNINSYLAWYQQKPGKAPKLLIYRASSLESGVPSRFSGSGSGTEFTLTISSLQPDDFATYYCQSYYYSGSSNYNAFGGGTKVEIKR	2.5	15.5	–
TfR1 ANTIBODY-A HC-H4C hIgG1 Fab′(1C)/LC-L2 hKappa (Fab, V domains shown, also called ANTIBODY-A H4C/L2) VH: QSLVESGGGLVQPGGSLRLSCKASGIDFSSSGYMCWVRQAPGKGLEWVGCIYTYSSNTYYASWAKGRFTISKTSSTTVYLQMNSLKTEDTAVYYCARGTYGYTGYTYTMGYFSLWGPGTLVTVSS VL: ELDMTQSPSTLSASVGDRVTITCQASQNINSYLAWYQQKPGKAPKLLIYRASTLASGVPSRFSGSGSGTEFTLTISSLQPDDFATYYCQSYYYSGSSNYNAFGGGTKVEIKR	1.6	3.3	Kd [5]: 1.6 nM; koff [5]: 0.00148 s⁻¹; kon [5]: 931000 M⁻¹ s⁻¹; Kd [6]: 6.2 nM; koff [6]: 0.0134 s⁻¹; kon [6]: 2.16e+06 M⁻¹ s⁻¹
TfR1 ANTIBODY-A HC-H2 hIgG1 Fab′(1C)/LC-L2 hKappa (Fab, V domains shown, heavy chain derived; also called ANTIBODY-A H2/L2) VH: QSLVESGGGLVQPGGSLRLSCAASGIDFSSSGYMAWVRQAPGKGLEWVGAIYTYSSNTYYAASVKGRFTISKTSSTTVYLQMNSLKTEDTAVYYCARGTYGYTGYTYTMGYFSLWGQGTLVTVSS VL: ELDMTQSPSTLSASVGDRVTITCQASQNINSYLAWYQQKPGKAPKLLIYRASTLASGVPSRFSGSGSGTEFTLTISSLQPDDFATYYCQSYYYSGSSNYNAFGGGTKVEIKR	6.5	> 52	–
TfR1 ANTIBODY-A HC-H0 hIgG1 Fab′(1C)/LC-L2 hKappa (Fab, V domains shown, also called ANTIBODY-A H0/L2) VH: EVQLVESGGGLVQPGGSLRLSCAASGIDFSSSGYMAWVRQAPGKGLEWVGAIYTYSSNTYYAASVKGRFTISRDDSKNSLYLQMNSLKTEDTAVYYCARGTYGYTGYTYTMGYFSLWGQGTLVTVSS VL: ELDMTQSPSTLSASVGDRVTITCQASQNINSYLAWYQQKPGKAPKLLIYRASTLASGVPSRFSGSGSGTEFTLTISSLQPDDFATYYCQSYYYSGSSNYNAFGGGTKVEIKR	> 70	–	–
